Measured values published in the supplement of paper PMC9170038.

Test system: MS2 coat protein
Assay: apparent KD of MS2 coat protein; higher = weaker reporter binding
Conditions: Eterna round: R107; input ligand: theophylline 20 uM
Outline: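 Titrations with SNAP-549-labelled MS2 coat protein ran in twofold steps from 0.7 or 1.5 nM to 3 µM, each step taking 0.8–1.5 h at the start and 10–20 min toward the end. The targets were designed RNA switches transcribed on-chip from Illumina sequencing clusters, held in 100 mM Tris-HCl pH 7.5, 80 mM KCl, 4 mM MgCl2, without or with constant ligand. Apparent KD was taken per design as the median of normalised cluster binding-curve fits.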

In order of rising “apparent KD of MS2 coat protein” value:
1. CUGCCUGCCUCACAUGAGGAUCACCCAUGUCGAGGACCGGUACGGCCGCCACUCGUCGUCGGUAAUACAGGCAUUGAAUAAUAUA [Esgeusla]  0.0145 µM
2. GCGAUACGUACUGAUACCAGAGACAUGAGGAUCACCCAUGUCCCAUGAUCAUACCUCAGACUCCCUUGGCAGCAGGAUAAGUGAG [Exclusion Theophylline B GF2]  0.0151 µM
3. GGCCUGUGGUGCGAUACCAGCUUGAGUGUACUGGCCAGGUACAUGAGGAUCACCCAUGUAAGCCCUUGGCAGCGCGUCAGAGGCC [#1 Exclusion - Theophylline B Attempt #19 (HarryS)]  0.0169 µM
4. ACUUGAUACUGAAGGAGCGUCGGAUAAACUCGCACAUGAGGAUCACCCAUGUAUAUGAAUCGACAGGUAGGUCGCAGUAUCGAGU [Arg B SS t6]  0.0197 µM
5. AAAUAUUACGGAAGGAGCGUCUCAUAUAUGAAACAUGAGGAUCACCCAUGUGAUAAUGAACGACAGGUAGGUCGCCGAUAAUUGA [JR_AAArginiB_Sub029]  0.0227 µM
6. ACUUCAUGAGGUGAUACCAGCCAAUGACAUGAGGACAUGAGGAUCACCCAUGUUUAUGUAGGCCCUUGGCAGCACUGUAACAUGA [Same State Theophylline B 4]  0.0318 µM
7. ACCUGUACGAAAAGUGCAGGACACGGAAUACGAGGACCGGUACGGCCGCCACUCGGAAACCUGAGGAUCACCCUGGUAAACCGUG [TrypAS 12 #AlternativeMS2 #Zipper #StaticStem]  0.0335 µM
8. CCACUUUCUUUUAUCUUUCUUUCUUUGUUACGAGGACCGGUACGGCCGCCACUCGUGGUGUGUGGUACAUGAGGAUCACCCAUGU  0.0349 µM
9. AUCCACAGCCGAAGGAGCGCUAGAAGAUGACAUGAGGAUCACCCAUGUGUGUGAUGUGGCUAGCAGGUAGGUCGCGGAGUGGAUU [Exclusion - Arginine B (Freestyle 12)]  0.0355 µM
10. CGAAUACUGAGUGAUACCAGUGAAAGAUAACUGUAUACACAUGAGGAUCACCCAUGUACACACCCUUGGCAGCACACUAGAUCGA [Same State Theophylline B GF 2]  0.04 µM
11. GAUGAACUAUUCGAUACCAGACUACAUGAGGAUCACCCAUGUGUGUCAAUUUCUCAGUCAGUCCCUUGGCAGCGAAUAGUUUAUC [#26 Exclusion-TheophyllineB]  0.0517 µM
12. GGGCCCGGGCGCGAGCCCGGGCCCAUUGAUACCAGUGAAUAUAUACGCCCUUGGCAGCGAAUCCUAACAUGAGGAUCACCCAUGU [5.B]  0.0623 µM
13. CACGAAAGAUCGGCCGCCACUCAUGUAGCUUACAUGAGGAUCACCCAUGUAUUUUCUUUCUUUUAGAGGACCGGGAUCGAGCGUG [#02 Same State - Tryptophan B]  0.0652 µM
14. UACAUGAGGAUCACCCAUGUAUAGAGGGAUACCAGUGUCAGUGAGCACCCUUGGCAGCCCGCGAACAAUGGGUGCGCUAAAUAGU [#19 Exclusion-TheophyllineA]  0.0753 µM
15. UAUCCACAUGAGGAUCACCCAUGUAUGGAAGGAGCGGUGAAUGAACCAGGUAGGUCGCCAUGGUGAGGAUCAUCUAUGGAUUCGU [Exclusion - Arginine A (Freestyle 9)]  0.0824 µM
16. CCGAACAUGAGGAUCACCCAUGUAUCCGAGCGAGGACCGGUACGGCCGCCACUCGAACUGCACCGGAAAAGGGAAACACCGAUCC [theeternabot_sameState_MS2_Trp_A_9]  0.0957 µM
17. GGCUGUUGCGAUUUGAAGCGGCAGCGUGAUACCAGAUGUAAGAGCGUCCCUUGGCAGCACGUUUACAUGAGGAUCACCCAUGUCA [Xerema]  0.123 µM
18. AGCGUUCAGCUUAUACUGGACAAUGGGUGACGAGGACCGGUACGGCCGCCACUCGGGCGCCCGGUUACAUGAGGAUCACCCAUGU [Vedizaus]  0.213 µM
19. GAAUUUAUUUGAAGGAGCGUCGAAAAUGGGUAAACAUGAGGAUCACCCAUGUAAAGGGAACGACAGGUAGGUCGCAAAUGGAUUC [AstromonsSSArgB#27]  0.259 µM

Same assay, conditions: Eterna round: R107; input ligand: theophylline 2 mM

In order of falling “apparent KD of MS2 coat protein” value:
1. GGAGGUACCCGAAGGAGCGACAUGAGGAUCACCCAUGUCUCCCGUUAUGGGAGUUCUUUAGGUCAGGUAGGUCGCGGGUACCUCC [#1 Exclusion - Arginine B Attempt #2 (Inspired by Omei)]  0.202 µM
2. UAUCGGAACUGAAGGAGCGAGAUGACAAACAUGAGGAUCACCCAUGUUAUGGGUUGUUAAUCUCAGGUAGGUCGCAGUGGUAGCA [#27 Same State - Arginine B]  0.194 µM
3. CACGAAAGAUCGGCCGCCACUAUUUGAUGUGUUCUUUCACAUGAGGAUCACCCAUGUUCUUAUUAUAGGACCGGGAUUGAGCGUG [ETB #3]  0.19 µM
4. CGGAGUAUGACGGCCGCCACUUGCCGGGCGCAGCUGGCUGCUUGACAUGAGGAUCACCCAUGUCCAAGGACCGGGUCAUUCCUCG [theeternabot_sameState_MS2_Trp_B_37]  0.189 µM
5. ACAUUUAACUGAAGGAGCGUGAUAUUUACAUGAGGAUCACCCAUGUCUUUCAUGAAUAAUUCACAGGUAGGUCGCAGACUAAUGA [JR_ExcArginiB_Sub007]  0.158 µM
6. AUAACAUGAGGAUCACCCAUGUAAGCUGAAGGAGCGCUGGAAACAGCAGGUAGGUCGCAGCAUGUUUCCAAUCCUCAUGGAAACA [(M1)-(M2)-(Arg1)-(Arg2)-(A)'-(M)'-(A)''_Design9]  0.136 µM
7. UUGACAUGAGGAUCACCCAUGUUAGCGGAAGGAGCGCGGUAGUACGCAGGUAGGUCGCCGAGAACAGUGAUAGUUGUUCUCAUGU [X-ArgiA-ms2@4-1]  0.0912 µM
8. GGUUCCUCAACGGCCGCCACUUACUGGAUUAGUGGACCUACUUGCAACAUGAGGAUCACCCAUGUAAGGACCGGGUUGCUCCCAA [theeternabot_exclusion_MS2_Trp_B_34]  0.0879 µM
9. CCUAUGCAGUCGGCCGCCACUGAACAUGAGGAUCACCCAUGUAUAUAAAGAUCCUGAUAUAAUAACAGGACCGGGACUGUAUAGG [Ex Tryptophan B 10]  0.0582 µM
10. GCACAAGAUGGAAGGAGCGCUGGGAAAGGUCACAUGAGGAUCACCCAUGUUCUCCUUGCCGAGCAGGUAGGUCGCCAUCUUGUGC [SSAB NP+V+V2 #2]  0.0561 µM
11. CCACUUUCUUUUAUCUUUCUUUCUUUGUUACGAGGACCGGUACGGCCGCCACUCGUGGUGUGUGGUACAUGAGGAUCACCCAUGU  0.0329 µM
12. GGCCUGUGGUGCGAUACCAGCUUGAGUGUACUGGCCAGGUACAUGAGGAUCACCCAUGUAAGCCCUUGGCAGCGCGUCAGAGGCC [#1 Exclusion - Theophylline B Attempt #19 (HarryS)]  0.0303 µM
13. CUAAAUAUAACGGCCGCCACUUACUCAUGAGGUAACAACAUGAGGAUCACCCAUGUUUGAGGAUCAAGGACCGGGUUAUAUUUAG [AstrosSSTry#22]  0.0302 µM
14. AUCCACAGCCGAAGGAGCGCUAGAAGAUGACAUGAGGAUCACCCAUGUGUGUGAUGUGGCUAGCAGGUAGGUCGCGGAGUGGAUU [Exclusion - Arginine B (Freestyle 12)]  0.0262 µM
15. ACUUGAUACUGAAGGAGCGUCGGAUAAACUCGCACAUGAGGAUCACCCAUGUAUAUGAAUCGACAGGUAGGUCGCAGUAUCGAGU [Arg B SS t6]  0.0156 µM
16. UGUGUCGUCUGAAGGAGCGGCCCUUGAUCCUCGUGAGACAUGAGGAUCACCCAUGUCUCGGGCCAGGUAGGUCGCAGGCGGCACA [#25 Exclusion - Arginine B]  0.0128 µM
17. GCUGCCAUACGAAGGAGCGCUGGUGUAGUGCGGCGAACAUGAGGAUCACCCAUGUGGCAGCAGCAGGUAGGUCGCGUAUGGCAGC [EAB #14]  0.0126 µM
